Test results reported in patent publication US20050182242A1, “Global analysis of protein activities using proteome chips” (priority 2001, published 2005).

B1: Smd1p: U1 snRNP component (protein, UniProt Q02260 1-146, looked up)
Small nuclear …: MKLVNFLKKLRNEQVTIELKNGTTVWGTLQSVSPQMNAILTDVKLTLPQPRLNKLNSNGIAMASLYLTGGQQPTASDNIASLQYINIRGNTIRQIILPDSLNLDSLLVDQKQLNSLRRSGQIANDPSKKRRRDFGAPANKRPRRGL
B2: Tos8p: yeast transcription factor suggested to be involved in RNA splicing and processing (protein, UniProt P53147 1-276, looked up)
Homeobox protein TOS8: MGTSIVNLNQKIELPPIQVLFESLNRENETKPHFEERRLYQPNPSFVPRTNIAVGSPVNPVPVSSPVFFIGPSPQRSIQNHNAIMTQNIRQYPVIYNNNREVISTGERNYIITVGGPPVTSSQPEYEHISTPNFYQEQRLAQPHPVNESMMIGGYTNPQPISISRGKMLSGNISTNSVRGSNNGYSAKEKKHKAHGKRSNLPKATVSILNKWLHEHVNNPYPTVQEKRELLAKTGLTKLQISNWFINARRRKIFSGQNDANNFRRKFSSSTNLAKF
B3: Bur6p: alpha-subunit of the NC2 (Dr1/Drap1) repressor of class II transcription (protein, UniProt P40096 1-142, looked up)
Negative cofactor 2 complex …: MADQVPVTTQLPPIKPEHEVPLDAGGSPVGNMGTNSNNNNELGDVFDRIKTHFPPAKVKKIMQTDEDIGKVSQATPVIAGRSLEFFIALLVKKSGEMARGQGTKRITAEILKKTILNDEKFDFLREGLCVEEGQTQPEEESA
B4: Hst3p: transcriptional silencer (protein, UniProt P53687 1-447, looked up)
NAD-dependent histone …: MTSVSPSPPASRSGSMCSDLPSSLQTEKLAHIIGLDADDEVLRRVTKQLSRSRRIACLTGAGISCNAGIPDFRSSDGLYDLVKKDCSQYWSIKSGREMFDISLFRDDFKISIFAKFMERLYSNVQLAKPTKTHKFIAHLKDRNKLLRCYTQNIDGLEESIGLTLSNRKLPLTSFSSHWKNLDVVQLHGDLKTLSCTKCFQTFPWSRYWSRCLRRGELPLCPDCEALINKRLNEGKRTLGSNVGILRPNIVLYGENHPSCEIITQGLNLDIIKGNPDFLIIMGTSLKVDGVKQLVKKLSKKIHDRGGLIILVNKTPIGESSWHGIIDYQIHSDCDNWVTFLESQIPDFFKTQDQIKKLRQLKREASDLRKQMKAQKDSIGTPPTTPLRTAQGIDIQGNNELNTKIKSLNTVKRKILSPENSSEEDEEENLDTRKRAKIRPTFGDNQAS

Legend:
[1] = tested on: RNA-polyA+; assay: Yeast proteome chip probed with biotin-labeled polyA+ RNA; type: binding; conditions: Cy3-streptavidin
Description: Protein-DNA and protein-RNA interactions are important for many fundamental biological functions such as transcription regulation, chromosome segregation and maintenance, and RNA transport and processing (Williamson, 2000, Nat. Struct. Biol. 7(10):834-7). To explore the possibility of using a proteome chip to identify proteins that bind to DNA or RNA molecules, total yeast genomic DNA was labeled using Cy3-CTP and Klenow fragment, and polyA^+ was labeled using a biotinylated psoralen-derivative (31). Each probe was incubated with a different proteome chip (FIG. 3A).
The protein-nucleic acid interaction was assayed as follows. The nucleic acid robes were labeled as described by Winzeler et al. (1999, Science 285:901). Blocked proteome chips were washed three to five times in PBS buffer, and the extra liquid on the glass surface was removed by tapping the slides vertically on a KIMWIPE™. 200 μl of labeled nuclei acid probe ([…] poly(dC/dG); 100-300 mM NaCl; 50-300 mM HEPES, pH 7.0-8.5; 10 mM MgCl2) was added to the proteome chip and immediately covered by a hydrophobic plastic cover slip (GRACE BIO-LABS™, USA). After trapped air bubbles were removed, the chip was incubated in a humidity chamber in the dark at room temperature (“RT”) for one hour. To remove the cover slip, the chip was immersed into large volume of PBS buffer(>50 ml), so that the slip would float away. The chip was then moved to a second PBS bath (>50 ml) and washed 3×5 min with shaking in the dark at RT. To completely remove the liquid on the chip, the chip was spun to dryness at 1500-2000 rpm for 5-10 min at RT.
RNA-polyA^+ from exponentially growing cells was labeled with biotin and used to probe the proteome microarray. The positive signals were detected using Cy3-streptavidin. […] In addition to proteins that likely directly or indirectly interact with RNA, we found two transcription factors (Bur6p and Tos8p), one transcriptional silencer (Hst3p), six other proteins encoded by known ORFs, and seven proteins from uncharacterized ORFs.

[2] = tested on: total yeast genomic DNA; assay: Yeast proteome chip probed with labeled genomic DNA; type: binding; conditions: Cy3-labeled genomic DNA, visual inspection
Method in brief: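 Total yeast genomic DNA, Cy3-labelled with Klenow fragment, was applied to blocked proteome chips. Binding buffer: […], 100-300 mM NaCl, 50-300 mM HEPES pH 7.0-8.5, 10 mM MgCl2; 1 h at RT in the dark, followed by PBS washes.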

Molecule | binding of polyA+ RNA probe [1] | binding of genomic DNA probe [2]
B1 | identified | –
B2 | identified | –
B3 | bound both the DNA and RNA probes | identified
B4 | identified | –
